Data published in patent US20100254975A1 (Amgen, published 2010).

How the values were obtained:
human alpha4beta7 [1] = target: T1, human alpha4beta7 (human, UniProt P13612 34-1032; P26010 20-798); test: FACS on transfected 293 cells, 1 microG/ml, PE anti-human IgG; control
a4(Q878R)b7 (human) [2] = target: a4(Q878R)b7 (human) (UniProt P13612); test: as above
a4(V824A)b7 (human) [3] = target: a4(V824A)b7 (human) (UniProt P13612); test: as above
a4b7(E97V) (human) [4] = target: a4b7(E97V) (human) (UniProt P13612); test: as above
a4b7(G629S) (human) [5] = target: a4b7(G629S) (human) (UniProt P13612); test: as above
a4b7(R213S) (human) [6] = target: a4b7(R213S) (human) (UniProt P13612); test: as above
human alpha4beta7 [7] = target: T1, human alpha4beta7; test: cell-based or functional assay
a4(Q878R)b7 (human) [8] = target: a4(Q878R)b7 (human) (UniProt P13612); test: FACS on transfected 293 cells, 1 microG/ml, PE anti-human IgG
a4(V824A)b7 (human) [9] = target: a4(V824A)b7 (human) (UniProt P13612); test: as above
a4b7(E97V) (human) [10] = target: a4b7(E97V) (human) (UniProt P13612); test: as above
a4b7(G629S) (human) [11] = target: a4b7(G629S) (human) (UniProt P13612); test: as above
a4b7(R213S) (human) [12] = target: a4b7(R213S) (human) (UniProt P13612); test: as above
human alpha4beta7 [13] = target: T1, human alpha4beta7; test: as above
Source text: Point mutant constructs representing amino acid altering SNPs (a4b7(E97V); a4b7(R213S); a4b7(G629S; a4(V824A)b7; a4(Q878R)b7) in the extracellular domains of both alpha4 and beta7 were generated. Each point mutant construct was transfected to 293 cells along with the wild-type partner expression construct. Transfected 293 cells were first stained with 1 microG/ml of human IgG or anti-alpha4beta7 antibody, washed with PBS, and the stained with phycoerytherin conjugated secondary antibody goat-anti human IgG. After washing with PBS, cells were analyzed by fluorescence activated cell sorting, for example, with a FACSCalibur™ (BD Biosciences, San Jose Calif.).

human alpha4beta7 [14] = target: T1, human alpha4beta7; test: FACS, biotinylated antibody on human CD4+CD45RA- memory T cells
Description: Human peripheral blood mononuclear cells (PBMC; fresh or frozen and thawed, for example in phosphate buffered saline with 2% FBS) are washed and resuspended in HEPES buffer (30 mM HEPES+[…]) with 1% BSA, with or without 1 mM MnCl₂ (depending on the experiment; Mn²⁺ is necessary for MAdCAM-1 binding) and plated into 96 well plates (10⁶cells/well). Cells are incubated with 10 microG/ml human IgG for 30 minutes on ice to block nonspecific binding. Cells are then incubated with serial dilutions of biotinylated anti-alpha4beta7 antibodies in 96 well plates for one hour on ice, followed by addition of 1:100 dilution of streptavidin-phycoerythrin (PE; Jackson ImmunoResearch Laboratories Inc., West Grove, Pa.), 4 microL CD3-Pacific Blue, CD4-PerCP-Cy5.5 and CD45RA-fluorescein isothiocyanate (FITC) (BD Biosciences, San Jose Calif.) for a final volume of 100 microL, and incubated for another hour on ice. Cells were washed twice with HEPES buffer (with or without MnCl₂, correspondingly) and then fixed in 200 microL HEPES buffer plus 0.5% paraformaldehyde (again, with or without MnCl₂, correspondingly). The percentage of positive alpha4beta7 antibody binding CD4+CD45RA-memory T cells is determined using a fluorescence activated cell sorter (FACS), for example, a BD™ LSR II benchtop flow cytometer (BD Biosciences, San Jose Calif.).

human alpha4beta7 [15] = target: T1, human alpha4beta7; test: KinExA, HUT78 cells expressing human alpha4beta7, n-curve analysis
Source text: (§1) To measure cell binding affinity of human anti-alpha4beta7antibodies, a Kinetic Exclusion Assay which measures binding events in solution phase can be used to calculate the equilibrium dissociation constant, Kd. KinExA® Technology (Sapidyne Instruments, Boise, Id.) was used, substantially as described previously by Xie et. al. J. Imm, Methods 304:1 (2005) and Rathanaswami et. al. Anal. Biochem. 373:52 (2008). Briefly, HUT78 cells expressing human alpha4beta7 were titrated 1 in 3 from […] to ˜400 cells/mL and then equilibrated with a final concentration of either 2 or 30 pM of mAb 2F12 or 18A11 and 30 or 500 pM for 17C8 for 18 hours at 4° C. The free antibody remaining in the supernatant at equilibrium was measured by KinExA® technology by passing the supernatant over PMMA beads pre-coated with goat anti-human Fc and detected with goat anti-human (H+L) Cy5 (substantially as described by Rathanaswami et al. Biochem Biophys Research Commun:1004 (2005). The equilibrium dissociation constant (Kd) is obtained using KinExA® software by “n-curve analysis” which fits all of the given curves to a single Kdvalue simultaneously (Rathanswami et al. 2005 and Xie et al., supra).; results are shown below in Table 7.

human alpha4beta7 [16] = target: T1, human alpha4beta7; test: KinExA, HUT78 cells expressing human alpha4beta7, lower bound of Kd
Source text: as §1

human alpha4beta7 [17] = target: T1, human alpha4beta7; test: KinExA, HUT78 cells expressing human alpha4beta7, upper bound of Kd
Source text: as §1

human alpha4beta7 [18] = target: T1, human alpha4beta7; test: FACS competition, blocks biotinylated MAdCAM-1-Fc binding to human CD4+CD45RA- memory T cells
Description: PBMC (fresh or frozen as described previously) are washed and resuspended in HEPES buffer (30 mM HEPES+[…]) with 1% BSA and 1 mM MnCl. to a final concentration of 10⁷cells/ml. Cells are blocked as described previously; after blocking, cells are incubated with a serial dilution of anti-alpha4beta7 antibody (or appropriate control) in 96 well plates for 30 minutes on ice, and then with 0.3 microG/ml biotinylated MAdCAM-1-Fc protein for another one hour.
After two washes in HEPES buffer with 1 mM MnCl, cells are treated with 1:100 dilution of streptavidin-PE, 4 microL CD3-Pacific Blue, CD4-PerCP-Cy5.5 and CD45RA-FITC as described previously, in a final volume of 100 microL. After one hour incubation on ice, cells are washed twice with HEPES buffer with 1 mM MnCl and then fixed in 200 microL buffer plus 0.5% paraformaldehyde. The percentage of positive MAdCAM-1-Fc binding CD4+CD45RA-memory T cells is determined by fluorescence activated cell sorter (FACS) analysis, as described previously.

Chain of a4(V824A)b7 (human) (P13612 34-1032 V824A, chain 1 of 2): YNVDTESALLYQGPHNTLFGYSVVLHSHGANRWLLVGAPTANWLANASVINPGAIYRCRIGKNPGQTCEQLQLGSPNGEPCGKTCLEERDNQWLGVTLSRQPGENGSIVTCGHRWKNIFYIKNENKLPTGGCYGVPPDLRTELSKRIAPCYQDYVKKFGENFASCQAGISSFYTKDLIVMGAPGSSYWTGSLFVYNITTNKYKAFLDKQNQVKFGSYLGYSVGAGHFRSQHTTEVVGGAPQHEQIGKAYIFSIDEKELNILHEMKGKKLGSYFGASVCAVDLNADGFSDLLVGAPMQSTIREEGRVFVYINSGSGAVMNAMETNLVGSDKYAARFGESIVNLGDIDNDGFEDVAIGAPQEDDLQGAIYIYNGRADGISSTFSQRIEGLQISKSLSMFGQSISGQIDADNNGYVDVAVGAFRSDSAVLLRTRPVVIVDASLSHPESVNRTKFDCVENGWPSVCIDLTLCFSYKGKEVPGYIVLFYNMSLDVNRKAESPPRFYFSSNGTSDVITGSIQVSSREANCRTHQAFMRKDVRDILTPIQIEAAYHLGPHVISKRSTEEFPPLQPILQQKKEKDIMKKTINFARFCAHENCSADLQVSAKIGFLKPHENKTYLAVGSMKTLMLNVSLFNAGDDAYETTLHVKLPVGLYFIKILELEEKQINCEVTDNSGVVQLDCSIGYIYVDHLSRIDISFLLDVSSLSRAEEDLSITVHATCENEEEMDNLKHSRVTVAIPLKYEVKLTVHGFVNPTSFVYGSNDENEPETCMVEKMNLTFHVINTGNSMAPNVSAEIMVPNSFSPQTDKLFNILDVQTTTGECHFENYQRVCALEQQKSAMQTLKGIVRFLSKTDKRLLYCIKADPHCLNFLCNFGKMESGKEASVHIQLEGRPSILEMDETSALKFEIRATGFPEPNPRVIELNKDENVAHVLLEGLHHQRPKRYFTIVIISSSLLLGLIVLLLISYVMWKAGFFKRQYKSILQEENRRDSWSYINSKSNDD
Chain of a4(V824A)b7 (human) (P26010 20-798, chain 2 of 2, further chain): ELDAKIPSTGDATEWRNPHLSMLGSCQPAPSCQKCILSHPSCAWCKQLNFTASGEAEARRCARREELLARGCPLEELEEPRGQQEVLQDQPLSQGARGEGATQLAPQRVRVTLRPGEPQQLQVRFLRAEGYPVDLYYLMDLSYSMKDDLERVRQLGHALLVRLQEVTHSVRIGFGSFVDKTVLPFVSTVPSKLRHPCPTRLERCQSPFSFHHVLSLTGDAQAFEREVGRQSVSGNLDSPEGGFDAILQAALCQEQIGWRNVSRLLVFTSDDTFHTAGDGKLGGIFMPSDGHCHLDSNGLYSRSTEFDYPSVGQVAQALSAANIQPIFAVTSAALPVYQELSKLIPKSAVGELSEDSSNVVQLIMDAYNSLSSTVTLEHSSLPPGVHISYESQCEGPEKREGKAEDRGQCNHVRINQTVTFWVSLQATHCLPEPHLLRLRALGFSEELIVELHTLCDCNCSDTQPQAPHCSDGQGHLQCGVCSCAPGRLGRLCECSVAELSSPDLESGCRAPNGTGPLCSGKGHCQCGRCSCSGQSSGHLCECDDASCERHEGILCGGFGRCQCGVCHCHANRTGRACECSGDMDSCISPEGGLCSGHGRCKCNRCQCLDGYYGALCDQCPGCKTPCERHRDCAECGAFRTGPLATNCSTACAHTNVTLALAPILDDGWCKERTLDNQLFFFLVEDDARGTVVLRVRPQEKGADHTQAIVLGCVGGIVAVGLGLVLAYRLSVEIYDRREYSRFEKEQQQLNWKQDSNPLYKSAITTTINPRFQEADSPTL
T1 sequence (P13612 34-1032, chain 1 of 2): as the sequence (P13612 34-1032 V824A, chain 1 of 2) above, with A791V counted along it
T1 sequence (P26010 20-798, chain 2 of 2): as the sequence (P26010 20-798, chain 2 of 2, further chain) above
Chain of a4(Q878R)b7 (human) (P13612 34-1032, chain 1 of 2): as the sequence (P13612 34-1032 V824A, chain 1 of 2) above, with A791V counted along it
Chain of a4(Q878R)b7 (human) (P26010 20-798, chain 2 of 2, further chain): as the sequence (P26010 20-798, chain 2 of 2, further chain) above
Chain of a4b7(E97V) (human) (P13612 34-1032, chain 1 of 2): as the sequence (P13612 34-1032 V824A, chain 1 of 2) above, with A791V counted along it
Chain of a4b7(E97V) (human) (P26010 20-798 E97V, chain 2 of 2, further chain): as the sequence (P26010 20-798, chain 2 of 2, further chain) above, with E78V counted along it
Chain of a4b7(G629S) (human) (P13612 34-1032, chain 1 of 2): as the sequence (P13612 34-1032 V824A, chain 1 of 2) above, with A791V counted along it
Chain of a4b7(G629S) (human) (P26010 20-798 G629S, chain 2 of 2, further chain): as the sequence (P26010 20-798, chain 2 of 2, further chain) above, with G610S counted along it
Chain of a4b7(R213S) (human) (P13612 34-1032, chain 1 of 2): as the sequence (P13612 34-1032 V824A, chain 1 of 2) above, with A791V counted along it
Chain of a4b7(R213S) (human) (P26010 20-798 R213S, chain 2 of 2, further chain): as the sequence (P26010 20-798, chain 2 of 2, further chain) above, with R194S counted along it

How did the fluorescence staining intensity (geometric mean) (human alpha4beta7 [1]) turn out when human IgG (antibody) was run?
Its fluorescence staining intensity (geometric mean) is 8.

What about the fluorescence staining intensity (geometric mean) (a4(Q878R)b7 (human) [2]) of the same molecule?
The fluorescence staining intensity (geometric mean) was 7.

What about the fluorescence staining intensity (geometric mean) (a4(V824A)b7 (human) [3]) of the same molecule?
The fluorescence staining intensity (geometric mean) was 7.

What about the fluorescence staining intensity (geometric mean) (a4b7(E97V) (human) [4]) of the same molecule?
The fluorescence staining intensity (geometric mean) was 7.

What about the fluorescence staining intensity (geometric mean) (a4b7(G629S) (human) [5]) of the same molecule?
The fluorescence staining intensity (geometric mean) was 7.

What about the fluorescence staining intensity (geometric mean) (a4b7(R213S) (human) [6]) of the same molecule?
Its fluorescence staining intensity (geometric mean) is 7.

B1: 2F12 (antibody, V domains shown)
VH: QVQLVQSGAEVKKPGASVKVSCKVSGYTVTDLSMHWVRQAPGKGLEWMGGFDPQDGETIYAQKFQGRVTMTEDTSTDTAYMELRSLRSEDTAVYYCTTESSSAWFDPWGQGTLVTVSS
VL: DIQMTQSPSSVFASVGDRVTITCRASQGISSWLAWYQQKPGKAPNLLIYGASSLQNGVPLRFSGSGSGTDFTLTISSLQPEDFATYYCQQANSFPWTFGQGTKVEIK
notes: Fully human monoclonal from XenoMouse (human IgG2 or IgG4); kappa light chain; also called 2F12K; 2F12H
What does the source list for B1?
HUT78 Adhesion IC50 (human alpha4beta7 [7]): 11.4 ng/mL; fluorescence staining intensity (geometric mean) (a4(Q878R)b7 (human) [8]): 73; fluorescence staining intensity (geometric mean) (a4(V824A)b7 (human) [9]): 112; fluorescence staining intensity (geometric mean) (a4b7(E97V) (human) [10]): 134; fluorescence staining intensity (geometric mean) (a4b7(G629S) (human) [11]): 80; fluorescence staining intensity (geometric mean) (a4b7(R213S) (human) [12]): 37; fluorescence staining intensity (geometric mean) (human alpha4beta7 [13]): 129; EC50 (human alpha4beta7 [14]): 3.3 ng/mL; Kd (human alpha4beta7 [15]): 4.56 pM; Kd low (human alpha4beta7 [16]): 1.94 pM; Kd high (human alpha4beta7 [17]): 11.1 pM; IC50 (human alpha4beta7 [18]): 4.6 ng/mL

B2: 18A11 (antibody, V domains shown)
VH: QVQLVQSGAEVKKPGASVKVSCKVSGYTLSDLSIHWVRQAPGKGLEWMGGFDPQDGETIYAQKFQGRVTMTEDTSTDTAYMELSSLKSEDTAVYYCATGSSSSWFDPWGQGTLVTVSS
VL: DIQMTQSPSSVSASVGDRVTITCRASQGISSWLAWYQQKPGKAPKLLIYGASNLESGVPSRFSGSGSGTDFTLTISSLQPEDFANYYCQQANSFPWTFGQGTKVEIK
notes: Fully human monoclonal from XenoMouse (human IgG2 or IgG4); kappa light chain; also called 18A11K; 18A11H
For B2, which “HUT78 Adhesion IC50” value (human alpha4beta7 [7]) is on record?
The value was 7.4 ng/mL.

What about the fluorescence staining intensity (geometric mean) (a4(Q878R)b7 (human) [8]) of the same molecule?
Its fluorescence staining intensity (geometric mean) is 56.

And the fluorescence staining intensity (geometric mean) (a4(V824A)b7 (human) [9])?
Its fluorescence staining intensity (geometric mean) is 82.

And the fluorescence staining intensity (geometric mean) (a4b7(E97V) (human) [10])?
Its fluorescence staining intensity (geometric mean) is 105.

And the fluorescence staining intensity (geometric mean) (a4b7(G629S) (human) [11])?
Its fluorescence staining intensity (geometric mean) is 63.

And the fluorescence staining intensity (geometric mean) (a4b7(R213S) (human) [12])?
The fluorescence staining intensity (geometric mean) was 30.

What about the “fluorescence staining intensity (geometric mean)” value (human alpha4beta7 [13]) of the same molecule?
Its value is 92.

What about the EC50 (human alpha4beta7 [14]) of the same molecule?
The EC50 was 4.7 ng/mL.

What about the Kd (human alpha4beta7 [15]) of the same molecule?
The Kd was 0.9 pM.

And the Kd low (human alpha4beta7 [16])?
Its Kd low is 0.23 pM.

What about the Kd high (human alpha4beta7 [17]) of the same molecule?
The Kd high was 2.29 pM.

What about the IC50 (human alpha4beta7 [18]) of the same molecule?
Its IC50 is 7.3 ng/mL.

B3: 17C8 (antibody, V domains shown)
VH: QVQLVESGGGLVKPGGSLRLSCAASGFTFSDYYMSWIRQAPGKGLEWLSYISNSGSAMYYADSVKGRFTISRDNARNSLYLQMNSLRAEDTAVYYCAREYSSGWFFFESWGQGTLVTVSS
VL: EIVMTQSPATLSVSPGERATLSCRASQSVSSNLVWYQQKPGQAPRLLIYGASTRATGIPARFSGSGSGTDFTLTISSLQSEDFAVYYCQQYDDWPPLTFGGGTTVEIK
notes: Fully human monoclonal from XenoMouse (human IgG2 or IgG4); kappa light chain; also called 17C8K; 17C8H
For B3, which “HUT78 Adhesion IC50” value (human alpha4beta7 [7]) is on record?
Its value is 6.8 ng/mL.

And the fluorescence staining intensity (geometric mean) (a4(Q878R)b7 (human) [8])?
The fluorescence staining intensity (geometric mean) was 51.

What about the fluorescence staining intensity (geometric mean) (a4(V824A)b7 (human) [9]) of the same molecule?
The fluorescence staining intensity (geometric mean) was 74.

What about the fluorescence staining intensity (geometric mean) (a4b7(E97V) (human) [10]) of the same molecule?
Its fluorescence staining intensity (geometric mean) is 96.

And the fluorescence staining intensity (geometric mean) (a4b7(G629S) (human) [11])?
Its fluorescence staining intensity (geometric mean) is 58.

And the fluorescence staining intensity (geometric mean) (a4b7(R213S) (human) [12])?
The fluorescence staining intensity (geometric mean) was 49.

And the “fluorescence staining intensity (geometric mean)” value (human alpha4beta7 [13])?
Its value is 93.

What about the EC50 (human alpha4beta7 [14]) of the same molecule?
The EC50 was 22.9 ng/mL.

And the Kd (human alpha4beta7 [15])?
The Kd was 29.4 pM.

And the Kd low (human alpha4beta7 [16])?
Its Kd low is 12.1 pM.

And the Kd high (human alpha4beta7 [17])?
Its Kd high is 74.5 pM.

And the IC50 (human alpha4beta7 [18])?
Its IC50 is 31.1 ng/mL.
